In PMC5438047 (Nature chemical biology, 2017):

T1: human O-GlcNAc hydrolase (hOGA) (Homo sapiens, UniProt O60502, DEL397-534)
T1 sequence (O60502 11-396): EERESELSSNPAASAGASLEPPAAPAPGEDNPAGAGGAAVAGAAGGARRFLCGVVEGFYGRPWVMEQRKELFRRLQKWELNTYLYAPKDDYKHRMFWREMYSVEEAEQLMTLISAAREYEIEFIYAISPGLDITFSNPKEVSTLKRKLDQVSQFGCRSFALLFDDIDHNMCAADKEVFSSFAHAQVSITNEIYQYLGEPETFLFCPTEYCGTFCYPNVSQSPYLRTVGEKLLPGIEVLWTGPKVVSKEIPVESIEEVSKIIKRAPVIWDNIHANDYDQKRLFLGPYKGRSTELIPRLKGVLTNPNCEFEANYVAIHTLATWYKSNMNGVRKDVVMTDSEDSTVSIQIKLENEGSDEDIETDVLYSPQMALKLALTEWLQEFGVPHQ
T1 sequence (O60502 535-715): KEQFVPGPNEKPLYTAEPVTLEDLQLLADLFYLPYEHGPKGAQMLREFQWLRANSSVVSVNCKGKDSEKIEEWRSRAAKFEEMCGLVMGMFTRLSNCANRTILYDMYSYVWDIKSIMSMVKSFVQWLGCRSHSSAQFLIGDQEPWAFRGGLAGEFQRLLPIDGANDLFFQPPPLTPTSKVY


Experiments:
[1] = test system: CC(=O)N[C@H]1[C@H](Oc2ccc([N+](=O)[O-])cc2)O[C@H](CO)[C@@H](O)[C@@H]1O; assay: purified protein
[2] = target: T1, human O-GlcNAc hydrolase (hOGA); assay: X-ray crystal structure; assay type: biochemical; details: cited from earlier work
SEC-MALS = target: the molecule itself; assay: SEC-MALS

| Molecule | stoichiometry N (SEC-MALS) | other results |
| --- | --- | --- |
| human O-GlcNAc hydrolase (hOGA) (Homo sapiens; DEL397-534) | – | Km [1]: 40.93 µM |
| PUGNAc-imidazole | – | Ki [2]: 3.9 µM |
| near full-length hOGA (His(6)9-916) (enzyme, human, UniProt O60502 9-916, looked up) TLEERESELSSNPAASAGASLEPPAAPAPGEDNPAGAGGAAVAGAAGGARRFLCGVVEGFYGRPWVMEQRKELFRRLQKWELNTYLYAPKDDYKHRMFWREMYSVEEAEQLMTLISAAREYEIEFIYAISPGLDITFSNPKEVSTLKRKLDQVSQFGCRSFALLFDDIDHNMCAADKEVFSSFAHAQVSITNEIYQYLGEPETFLFCPTEYCGTFCYPNVSQSPYLRTVGEKLLPGIEVLWTGPKVVSKEIPVESIEEVSKIIKRAPVIWDNIHANDYDQKRLFLGPYKGRSTELIPRLKGVLTNPNCEFEANYVAIHTLATWYKSNMNGVRKDVVMTDSEDSTVSIQIKLENEGSDEDIETDVLYSPQMALKLALTEWLQEFGVPHQYSSRQVAHSGAKASVVDGTPLVAAPSLNATTVVTTVYQEPIMSQGAALSGEPTTLTKEEEKKQPDEEPMDMVVEKQEETDHKNDNQILSEIVEAKMAEELKPMDTDKESIAESKSPEMSMQEDCISDIAPMQTDEQTNKEQFVPGPNEKPLYTAEPVTLEDLQLLADLFYLPYEHGPKGAQMLREFQWLRANSSVVSVNCKGKDSEKIEEWRSRAAKFEEMCGLVMGMFTRLSNCANRTILYDMYSYVWDIKSIMSMVKSFVQWLGCRSHSSAQFLIGDQEPWAFRGGLAGEFQRLLPIDGANDLFFQPPPLTPTSKVYTIRPYFPKDEASVYKICREMYDDGVGLPFQSQPDLIGDKLVGGLLSLSLDYCFVLEDEDGICGYALGTVDVTPFIKKCKISWIPFMQEKYTKPNGDKELSEAEKIMLSFHEEQEVLPETFLANFPSLIKMDIHKKVTDPSVAKSMMACLLSSLKANGSRGAFCEVRPDDKRILEFYSKLGCFEIAKMEGFPKDVVILGRSL | 2 | – |
| hOGA Split1 (co-expressed fragments 11-396 and 535-715) (complex, human) chain 1: EERESELSSNPAASAGASLEPPAAPAPGEDNPAGAGGAAVAGAAGGARRFLCGVVEGFYGRPWVMEQRKELFRRLQKWELNTYLYAPKDDYKHRMFWREMYSVEEAEQLMTLISAAREYEIEFIYAISPGLDITFSNPKEVSTLKRKLDQVSQFGCRSFALLFDDIDHNMCAADKEVFSSFAHAQVSITNEIYQYLGEPETFLFCPTEYCGTFCYPNVSQSPYLRTVGEKLLPGIEVLWTGPKVVSKEIPVESIEEVSKIIKRAPVIWDNIHANDYDQKRLFLGPYKGRSTELIPRLKGVLTNPNCEFEANYVAIHTLATWYKSNMNGVRKDVVMTDSEDSTVSIQIKLENEGSDEDIETDVLYSPQMALKLALTEWLQEFGVPHQ chain 2: KEQFVPGPNEKPLYTAEPVTLEDLQLLADLFYLPYEHGPKGAQMLREFQWLRANSSVVSVNCKGKDSEKIEEWRSRAAKFEEMCGLVMGMFTRLSNCANRTILYDMYSYVWDIKSIMSMVKSFVQWLGCRSHSSAQFLIGDQEPWAFRGGLAGEFQRLLPIDGANDLFFQPPPLTPTSKVY | 2 | – |
